The record followed here is patent US20160297892A1 (Novo Nordisk, published 2016).

First the molecules themselves.
B3: human Protein S (plasma derived) (other)
chain: ANSLLEETKQGNLERECIEELCNKEEAREVFENDPETDYFYPKYLVCLRSFQTGLFTAARQSTNAYPDLRSCVNAIPDQCSPLPCNEDGYMSCKDGKASFTCTCKPGWQGEKCEFDINECKDPSNINGGCSQICDNTPGSYHCSCKNGFVMLSNKKDCKDVDECSLKPSICGTAVCKNIPGDFECECPEGYRYNLKSKSCEDIDECSENMCAQLCVNYPGGYTCYCDGKKGFKLAQDQKSCEVVSVCLPLNLDTKYELLYLAEQFAGVVLYLKFRLPEISRFSAEFDFRTYDSEGVILYAESIDHSAWLLIALRGGKIEVQLKNEHTSKITTGGDVINNGLWNMVSVEELEHSISIKIAKEAVMDINKPGPLFKPENGLLETKVYFAGFPRKVESELIKPINPRLDGCIRSWNLMKQGASGIKEIIQEKQNKHCLVTVEKGSYYPGSGIAQFHIDYNNVSSAEGWHVNVTLNIRPSTGTGVMLALVSGNNTVPFAVSLVDSTSEKSQDILLSVENTVIYRIQALSLCSDQQSHLEFRVNRNNLELSTPLKIETISHEDLQRQLAVLDKAMKAKVATYLGGLPDVPFSATPVNAFYNGCMEVNINGVQLDLDEAISKHNDIRAHSCPSVWKKTKNS
notes: Bought plasma-derived human Protein S (Haematologic Technologies or Enzyme Research Laboratories); also called Plasma PS; free Protein S

For experiment [1], the target named is B3. The experiment can be described thus: SPR (Biacore T200), Fab on Protein S captured on C4BP.
Method: (§1) In brief, a polyclonal anti-C4BP antibody targeting the alpha chain (ab83755 from abcam) was immobilized on a CM5 Biacore sensor chip by standard amine coupling chemistry. […] The experiment was conducted in 10 mM Hepes, pH 7.4; 150 mM NaCl; 10 M CaCl₂ supplemented with 0.005% Tween20 and the chip was regenerated with glycine-HCl pH 1.7.
Experiment [2] addresses B3. Briefly: SPR; protein S binding to the full length antibody. A general note: Surface plasmon resonance follows binding to a sensor surface in real time, without labels.
For another experiment, the target named is T1, C4b-Binding Protein (UniProt P04003 49-597; P20851 18-252).
T1 construct: Bought protein; also called C4BP; C4b-BP
T1 sequence (looked up) 1: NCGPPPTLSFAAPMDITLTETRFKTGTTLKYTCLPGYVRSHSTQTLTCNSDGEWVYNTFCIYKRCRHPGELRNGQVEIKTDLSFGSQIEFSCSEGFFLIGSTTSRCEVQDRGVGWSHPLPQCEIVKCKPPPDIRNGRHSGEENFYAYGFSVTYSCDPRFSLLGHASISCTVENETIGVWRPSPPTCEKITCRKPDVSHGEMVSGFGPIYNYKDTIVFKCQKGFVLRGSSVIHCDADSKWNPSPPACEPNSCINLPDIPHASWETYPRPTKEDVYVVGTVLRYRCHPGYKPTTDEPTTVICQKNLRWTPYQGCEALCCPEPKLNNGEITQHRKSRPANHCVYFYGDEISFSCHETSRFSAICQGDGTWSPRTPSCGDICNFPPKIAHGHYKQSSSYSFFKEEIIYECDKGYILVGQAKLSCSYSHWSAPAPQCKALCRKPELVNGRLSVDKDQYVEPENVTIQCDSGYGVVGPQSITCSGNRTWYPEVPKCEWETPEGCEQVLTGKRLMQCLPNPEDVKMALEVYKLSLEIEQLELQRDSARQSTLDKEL
T1 sequence (looked up) 2: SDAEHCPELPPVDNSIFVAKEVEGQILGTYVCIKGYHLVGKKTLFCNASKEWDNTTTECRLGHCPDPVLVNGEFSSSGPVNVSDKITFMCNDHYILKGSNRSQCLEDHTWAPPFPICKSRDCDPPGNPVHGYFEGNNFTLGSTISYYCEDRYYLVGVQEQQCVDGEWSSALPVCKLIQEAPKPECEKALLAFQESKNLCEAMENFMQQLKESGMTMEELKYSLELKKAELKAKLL
The experiment can be described thus: SPR (Biacore T200), C4BP captured by immobilized polyclonal anti-C4BP alpha chain antibody.

Experiment [3] deals with B3. Briefly: ELISA, recombinant antibody. (ELISA stands for enzyme-linked immunosorbent assay.)
For experiment [4], the target named is T2, EGF1-4 domains of human Protein S with C-terminal HPC4 tag (human, UniProt P07225 114-286, partial hydroxylation of Asn or Asp in the EGF domains (detected by MS)).
T2 construct: also called hEGF1-4; human Protein S EGF1-4
T2 sequence: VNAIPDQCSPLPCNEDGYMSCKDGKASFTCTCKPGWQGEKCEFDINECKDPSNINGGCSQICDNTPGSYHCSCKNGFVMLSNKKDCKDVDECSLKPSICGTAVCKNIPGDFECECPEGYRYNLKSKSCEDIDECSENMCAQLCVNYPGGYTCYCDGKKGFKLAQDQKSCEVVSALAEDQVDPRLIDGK
The experiment can be described thus: ELISA, recombinant antibody.

Experiment [5] addresses T3, EGF domain 1 and 2 of recombinant human Protein S (human, UniProt P07225 114-200, limits assumed).
T3 construct: domain: EGF domain 1 and 2; also called hEGF1-2
T3 sequence (looked up): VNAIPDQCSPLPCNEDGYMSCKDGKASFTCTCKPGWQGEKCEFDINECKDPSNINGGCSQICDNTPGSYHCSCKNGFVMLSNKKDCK
The experiment can be described thus: ELISA, recombinant antibody.

The target of experiment [6] is T4, Gla-domain deleted recombinant human Protein S (human, UniProt P07225 114-676).
T4 construct: also called hPS-dGla; desGla human Protein S
T4 sequence: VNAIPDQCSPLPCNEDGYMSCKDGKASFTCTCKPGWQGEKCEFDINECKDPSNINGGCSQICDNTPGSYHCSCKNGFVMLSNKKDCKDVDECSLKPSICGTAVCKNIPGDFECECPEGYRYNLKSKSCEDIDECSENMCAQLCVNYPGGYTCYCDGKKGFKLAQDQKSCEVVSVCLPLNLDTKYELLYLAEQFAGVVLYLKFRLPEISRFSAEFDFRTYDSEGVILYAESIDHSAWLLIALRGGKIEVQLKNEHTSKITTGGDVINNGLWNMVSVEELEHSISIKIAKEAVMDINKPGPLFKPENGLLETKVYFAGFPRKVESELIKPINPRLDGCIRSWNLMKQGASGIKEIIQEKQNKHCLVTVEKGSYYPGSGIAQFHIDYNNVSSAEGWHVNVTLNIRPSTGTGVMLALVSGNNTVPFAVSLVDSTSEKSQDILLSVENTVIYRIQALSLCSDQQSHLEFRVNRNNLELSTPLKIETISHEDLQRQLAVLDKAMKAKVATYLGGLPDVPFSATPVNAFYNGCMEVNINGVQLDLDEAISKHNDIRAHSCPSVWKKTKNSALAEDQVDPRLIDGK
The experiment can be described thus: ELISA, recombinant antibody.

Method for C4b-Binding Protein: as §1

B1: 0322-0000-1139 (Fab, V domains shown)
VH: QVQLQQPGAELVRPGASVKLSCKASGYTFTSYWINWVKQRPEQGLEWIGRIDPYDSETHYNQKFKDKAILTVDKSSSTAYMQLSSLTSEDSAVYYCARWGGSGYAMDYWGQGTSVTVSS
VL: QIVLSQSPAILSASPGEKVTMTCRASSSVSYMYWYQQKPGSSPKPWIYATSNLASGVPARFSGSGSGTSYSLTISRVEAEDAATYYCQQWSSIPPTFGGGTKLEIKR
notes: also called Fab 1139
What is called Kd is the equilibrium constant for the complex coming apart. Read a low Kd as tighter binding. As to B1, in experiment [1], the Kd is 10 nM.

B2: 0322-0000-1069 (murine-human IgG4 chimer) (antibody, V domains shown)
VH: QVQLQQPGAELVRPGASVKLSCKASGYTFTSYWINWVKQRPEQGLEWIGRIDPYDSETHYNQKFKDKAILTVDKSSSTAYMQLSSLTSEDSAVYYCARWGGSGYAMDYWGQGTSVTVSS
VL: QIVLSQSPAILSASPGEKVTMTCRASSSVSYMYWYQQKPGSSPKPWIYATSNLASGVPARFSGSGSGTSYSLTISRVEAEDAATYYCQQWSSIPPTFGGGTKLEIKR
notes: Mouse variable domains on human IgG4(S241P) / human kappa constant regions
For the molecule B2, the dissociation constant Kd in experiment [2] worked out at 20 nM. For B3, the affinity with C4b-Binding Protein, expressed as Kd, was 2 nM.

B4: M-hProtS-6F230A10 monoclonal antibody (antibody, mouse IgG1, V domains shown)
VH: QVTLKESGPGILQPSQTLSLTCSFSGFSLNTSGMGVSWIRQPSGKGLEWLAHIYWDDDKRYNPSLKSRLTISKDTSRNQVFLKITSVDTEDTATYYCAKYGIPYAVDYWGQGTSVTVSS
VL: QIVLTQSPAIMSASPGEKVTMTCSASSSVSYMYWYQQKPGSSPRLLIYDTSNLASGVPVRFSGSGSGTSYSLTISRMEAEDAATYYCQQWSSYPLTFGAGTKLELKR
As to B4, the binding result is recorded as “binds” in experiment [3], “binds” in experiment [4], “no binding” in experiment [5] and “binds” in experiment [6].
